The nanobody polyreactivity screen of Harvey et al. (2022)

Assay: yeast display, Sf9 membrane polyspecificity reagent, FACS + sequencing; frameworks hold sequencing errors
Method in brief: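 Using colony PCR, genes from sorted yeast display clones were amplified, then sequenced on MiSeq at 2 × 250 and filtered by CDR length. The clones had been stained with 10% biotinylated, detergent-solubilized Sf9 membrane reagent for 1 hour at 4 °C and sorted by FACS into low and high (top ~1%) gates on anti-HA and streptavidin fluorescence. Polyreactivity labels come from the gate of origin.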

Sequence	polyreactivity (PSR sort gate)
QVHLQDSGGGLVQAGGSLRLSCAASCYISDVNDMGWYRQAPGKEREFVAGIGYGGITNYADSVKGRFTISRDNAQNTVYQHMNSLKPKDTAVYNCAVHWGPDSGLYYWGQGTQVTVSS	high polyreactivity
QVQLVESGGGLVQAGGSLRLSCAASGSTFRYYTMGWYRQAPGKEREFVASISRSGGSTYYADSVKGRFTISRDNAKNTVYLQMNSLKPEDTAVYYCNAVKGSYSRSQGNEYWGQGTQVTVSS	high polyreactivity
QVQHVESGGGLVQARGSLRLSCAASGLTFNTYAMGWYRQAPGQDRELVAAISRRGSRTYYADSVKGRFTISRDNAKNTVYLQMNSLNREDTAVYYCAAPRASGYYWGQGTQVTVSS	high polyreactivity
QVQLVESGGGLVQAGGSLRLSCAASGRIFWTNDMGWYSKAPGKERELVAGITWRGGSTYYADSVKGRFTISRDNAKNTVYLQMNSLKPEDTAVYYCATRYRRVYTWYDYWGQGTQVTVSS	high polyreactivity
QVQLVESGGGLVQAGGSLRLSCAASGIIFTDYAMGWYRQAPGTERELVAAISSGGGSTYYADSVKGRFTISRDNAKYSVYLQMNSLKPDDTAVYYGAAQSSGSYGFDHWGQGTQVTVSS	high polyreactivity
QVQLVESGGGLVQAGGSLRLSCAASGRTFRKYAMGWYRQAPGKERELVAAISQRGGTTYYADSVKGRFTISRDNAKNTVYLQINSLKPEDTAVYYCNVAWVGVSLVYGPFEYDYWGQGTQVTVSS	high polyreactivity
QVQLVESGGGLVQAGGSLRLSCAASGRILPFNAMGWHRQAPGKERELVDAIRWRGSSTYYADSVKGRFTISRDNAKNTVYLQMNSLKPEDTAVYYCAAPSSVRGKVISADYGYWGQGTQVTVSS	high polyreactivity
QVQLVESGGGLVQAGGSLRLSCAASGSIFVSNAMGWYRQAPGTERELVAAISGGGSTYYADSVKGRFTISRDNAKNTVFLQMNSLKPEDTAVYYCAKKGGHRTYGYDSWGQGTQVTVSS	low polyreactivity
QVQLVESGGGLVQAGGSLGLSCAAYGSIFVGNAMGWYRQAPGNERELVAAICRSGGITYYADSVKGRFTISRDNAKNTVYLQMNSLKPEDTAVYYCAARHRYYYQYRSDYWGQGTQVTVSS	high polyreactivity
QLQLVESGGGLVQAGGSLRLSCAASGFIFSWYAMGWYRQAPGKERELVAAISWSGGSTYYADSVKGRITISRDNANNSVYLQMNSLKPEDTAVYYCADDRGWAKEYYWVQGTQVTVSS	high polyreactivity
QVQLVESGGGLVQAGGSLRLSCAASGSIFYGYAMGWYRQAPGKERELVAAITTSGGSTYYADSVKGRFTISRDNAKYTVYLQMNSLKPEDTAVYYCAAVTYWPGGYYWGQGTQVTVSS	high polyreactivity
QVQIVESGGGLVQAGGSLRISCSASGRTLRSYAMGWYRHAPGKERELVAAISRSGGSTNYADSVKGRFTISHDNAKNTVYLQMNSLKPEETAVYYCNTYSTSWKMDYWGQGTKVTVSS	high polyreactivity
QVQLVESGGGLVQAGGSLRLSCAASGSTFEAYAMGWYRQAPGKERELVAAIRSSGSTSYADSVKGRFTISRDNAKNTVYLQMNSLKPVDTAVYYCAARVRGYPRYKRDYWGQGTQVTVSS	high polyreactivity
QVQLVESGGGLVPAGGSLRLSCAASGSMNTLYAMGWYRHAPGKERDLVADITRSGGSTYYADSVKGRFTISRDNAMNTVYLQMNSLKPEDTAVYYCAADKAPYSTEGDYWGQGTQVTVSS	high polyreactivity
QVQLVESGGGLVQAGGSLRLSCAASGSIFKRYAMGWYRQAPGKERELVAAITYNGGSTYYADSVKGRFTISRDNAKNTVYLQMNSLKPEDTAVYYCAAERYNGYDYWGQGTQVTVSS	high polyreactivity
QVQLRESGGGLVQAGGSLLSCAASATISYYREMGWYRQAPGNERELVAGIGVGTITYYADSVKGRFTISRDNAKNTVYLQMNSLKPEDTAVYYCAAHIEGNDSHAYWGQGTQVTVSS	low polyreactivity
QVQLVESGGGLVQAGVSLRLSCAASGFNFVFYDMGWYRQAPGKERELVAGITRNDGSTYYADSVKGRFKISRDNAKNTVYLQMNSLKPEDTAVYYCAADRVRRNDKLAYDYWGQGTQVTVSS	low polyreactivity
